Experimental data as given in patent US20170240629A1 (Hoffmann-La Roche, published 2017).

What was measured:
[1] = target: T1, cynomolgus IL-1beta (cynomolgus, UniProt P79182 117-268); assay: ELISA, cynomolgus IL-1beta coated, Example 5; based on MW 150 kDa
Procedure: (§1) The binding analysis was carried out using an enzyme-linked immunosorbent assay (ELISA)-based technology. […] The EC₅₀ was calculated with a four parameter logistic model using GraphPad Prism 6.0 software.

[2] = target: T2, human IL-1beta (human, UniProt P01584 117-269); assay: ELISA, human IL-1beta (Peprotech) coated, Example 4 variant 1; based on MW 150 kDa
Procedure: as §1

[3] = target: T3, His-tagged human IL-1beta (human, UniProt P01584 117-269); assay: ELISA, His-tagged human IL-1beta coated, Example 4 variant 2
T3 construct: also called human His-tagged IL-1beta protein (Sino Biologics 10139-H07E); not shown: His tag

[4] = target: rabbit IL-1beta (rabbit, UniProt P14628 117-268, limits assumed); assay: SPR (BIAcore)
[5] = target: T2, human IL-1beta; assay: SPR (BIAcore); antibody captured by anti-Fc, IL-1beta injected
Procedure: (§2) All experiments were performed at 25° C. using HBS-P (10 mM His, 140 mM NaCl, 0.05% Tween 20 pH 7.4) as running and dilution buffer. Anti-human or anti-mouse Fc antibodies were immobilized on a Series S CM5 Sensor Chip (GE Healthcare) using standard amine coupling chemistry. […] The dissociation phase was monitored for 600 sec by washing with running buffer. […] The surface was regenerated by injecting 3 M MgCl2 (for anti-human Fc antibody) or 10 mM Glycine pH 1.5 (for anti-mouse Fc antibody) for 60 sec at a flow rate of 5 μl/min. Bulk refractive index differences were corrected by subtracting the response obtained from a mock surface. Blank injections were subtracted (double referencing). The derived curves were fitted to a 1:1 Langmuir binding model using the BIAevaluation software.

[6] = target: T3, His-tagged human IL-1beta; assay: competition ELISA, His-tagged IL-1beta coated; competitor Fc-tagged human IL-1 receptor type II (Example 8); IL-1beta receptor II (example 8)
Procedure: (§3) The IC₅₀ was calculated with a four parameter logistic model using GraphPad Prism 6.0 software.

[7] = target: T3, His-tagged human IL-1beta; assay: competition ELISA, His-tagged IL-1beta coated; competitor Fc-tagged human IL-1 receptor type II (Example 8); based on MW 150 kDa
Procedure: as §3

[8] = target: T2, human IL-1beta; assay: SPR inhibition; 10 nM human IL-1beta pre-incubated with antibody, injected over immobilised human IL-1RI (competitor)
Procedure: All experiments were performed at 25° C. using HBS-P (10 mM His, 140 mM NaCl, 0.05% Tween 20 pH 7.4) as running and dilution buffer. Human IL-1RI was immobilized on a Series S CM5 Sensor Chip (GE Healthcare) using standard amine coupling chemistry. […] The surface was regenerated by injecting 10 mM NaOH for 60 sec at a flow rate of 5 μl/min. Bulk refractive index differences were corrected by subtracting the response obtained from a mock surface.

[9] = target: T4, murine IL-1beta (murine, UniProt P10749 118-269); assay: ELISA, murine IL-1beta coated, Example 6
Procedure: as §1

[10] = target: T2, human IL-1beta; assay: ELISA, human IL-1beta (Peprotech) coated, Example 4 variant 1
Procedure: as §1

[11] = target: T3, His-tagged human IL-1beta; assay: competition ELISA, His-tagged IL-1beta coated; competitor Fc-tagged human IL-1 receptor type I (Example 7); based on MW 150 kDa
Procedure: as §3

[12] = target: T1, cynomolgus IL-1beta; assay: SPR (BIAcore); antibody captured by anti-Fc, IL-1beta injected
Procedure: as §2

[13] = target: T2, human IL-1beta; assay: cell-based or functional assay
[14] = target: T3, His-tagged human IL-1beta; assay: competition ELISA, His-tagged IL-1beta coated; competitor Fc-tagged human IL-1 receptor type I (Example 7); IL-1beta receptor I (example 7)
Procedure: as §3

[15] = target: T3, His-tagged human IL-1beta; assay: ELISA, His-tagged human IL-1beta coated, Example 4 variant 2; based on MW 150 kDa
Procedure: as §1

[16] = target: T4, murine IL-1beta; assay: ELISA, murine IL-1beta coated, Example 6; based on MW 150 kDa
Procedure: as §1

[17] = target: rat IL-1beta (rat, UniProt Q63264 117-268); assay: SPR (BIAcore); antibody captured by anti-Fc, IL-1beta injected
Procedure: as §2

[18] = target: T1, cynomolgus IL-1beta; assay: ELISA, cynomolgus IL-1beta coated, Example 5
Procedure: as §1

[19] = target: T2, human IL-1beta; assay: cell-based or functional assay; remark: listed apart in the source
[20] = target: T2, human IL-1beta; assay: cell-based or functional assay; remark: listed apart in the source
[21] = target: T4, murine IL-1beta; assay: SPR (BIAcore); antibody captured by anti-Fc, IL-1beta injected
Procedure: as §2

Chain of rat IL-1beta (Q63264 117-268 limits assumed): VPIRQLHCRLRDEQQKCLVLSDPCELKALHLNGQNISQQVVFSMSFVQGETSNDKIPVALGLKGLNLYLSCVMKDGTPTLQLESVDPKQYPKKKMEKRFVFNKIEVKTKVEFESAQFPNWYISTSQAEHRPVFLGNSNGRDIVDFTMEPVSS
T4 sequence (P10749 118-269 limits assumed): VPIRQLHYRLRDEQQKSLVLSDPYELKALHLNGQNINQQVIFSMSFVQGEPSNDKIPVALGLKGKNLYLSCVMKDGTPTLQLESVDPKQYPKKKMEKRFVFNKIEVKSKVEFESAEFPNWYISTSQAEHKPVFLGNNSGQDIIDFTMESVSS
Chain of rabbit IL-1beta (P14628 117-268 limits assumed): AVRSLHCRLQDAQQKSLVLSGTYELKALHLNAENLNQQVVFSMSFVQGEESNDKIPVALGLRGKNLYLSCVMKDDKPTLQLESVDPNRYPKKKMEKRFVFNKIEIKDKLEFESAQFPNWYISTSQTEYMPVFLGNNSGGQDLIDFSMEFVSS

B1: IL-1beta-mumAb (antibody, V domains shown)
VH: EVQLQQSGPELEKPGASVKISCKASGYSFTDYNMNWVRQSNGKSLEWIGNIDPYYGGTTYNQKFKDKATLTVDKSSSTAYMQLKSLTSEDSAVYYCAREGSPTRYYVMDYWGQGTSVTVSS
VL: DIQMTQSPASLSASVGETVTITCRASENIYSNLAWYQQKQGKSPQLLVYAATNLADGVPSRFSGSGSGTQFSLKINSLQPEDFGSYYCHHFYNTPWTFGGGTKLEIK
notes: Murine antibody; also called murine anti-human IL-1beta antibody
Question: With B1 as the binder, how does the EC50 [1] read?
Answer: The EC50 was 0.142 nM.

Question: What about the EC50 [2] of the same binder?
Answer: The EC50 was 0.227 nM.

Question: And the EC50 [3]?
Answer: The EC50 was 0.0152 µg/mL.

Question: What about the Kd [4] of the same binder?
Answer: The Kd was 1.4 nM.

Question: And the Kd [5]?
Answer: Its Kd is 0.07 nM.

Question: What about the koff [5] of the same binder?
Answer: The koff was 7.5e-05 s⁻¹.

Question: What about the kon [5] of the same binder?
Answer: The kon was 1.12e+06 M⁻¹ s⁻¹.

Question: What about the IC50 [6] of the same binder?
Answer: Its IC50 is 0.132 µg/mL.

Question: And the IC50 [7]?
Answer: The IC50 was 0.88 nM.

Question: What about the IC50 [8] of the same binder?
Answer: Its IC50 is 2.5 nM.

Question: What about the EC50 [9] of the same binder?
Answer: Its EC50 is 0.0231 µg/mL.

Question: And the EC50 [10]?
Answer: The EC50 was 0.034 µg/mL.

Question: And the IC50 [11]?
Answer: Its IC50 is 1.54 nM.

Question: And the Kd [12]?
Answer: Its Kd is 0.08 nM.

Question: What about the koff [12] of the same binder?
Answer: Its koff is 9.5e-05 s⁻¹.

Question: And the kon [12]?
Answer: The kon was 1.15e+06 M⁻¹ s⁻¹.

Question: And the “EC50, reduction of IL-6 expression upon IL-1beta stimulation of A549 cells” value [13]?
Answer: The value was 1.09 nM.

Question: What about the IC50 [14] of the same binder?
Answer: Its IC50 is 0.231 µg/mL.

Question: And the EC50 [15]?
Answer: Its EC50 is 0.101 nM.

Question: And the EC50 [16]?
Answer: Its EC50 is 0.154 nM.

Question: And the Kd [17]?
Answer: The Kd was 0.31 nM.

Question: What about the koff [17] of the same binder?
Answer: Its koff is 0.000636 s⁻¹.

Question: And the kon [17]?
Answer: Its kon is 2.04e+06 M⁻¹ s⁻¹.

Question: What about the EC50 [18] of the same binder?
Answer: The EC50 was 0.0213 µg/mL.

Question: And the “IC50, inhibition of ICAM-1 expression upon IL-1beta stimulation of HUVEC cells” value [19]?
Answer: The value was 16.5 nM.

Question: What about the “IC50, inhibition of ICAM-1 expression upon IL-1beta stimulation of A549 cells” value [20] of the same binder?
Answer: Its value is 0.7 nM.

Question: What about the Kd [21] of the same binder?
Answer: Its Kd is 0.49 nM.

Question: What about the koff [21] of the same binder?
Answer: The koff was 0.00122 s⁻¹.

Question: And the kon [21]?
Answer: Its kon is 2.47e+06 M⁻¹ s⁻¹.
